Laboratory results: US20080131434A1 (ONCOMED PHARMACEUTICALS, published 2008)

Legend:
EGF1 = target: T1, EGF1; test: Western blot of Fc fusion proteins of the antigen deletion series, non-reduced SDS-PAGE
T1 construct: member of the EGF 1-5 deletion series; also called NOTCH1 EGF 1 Fc fusion protein (deletion series)
T1 chain: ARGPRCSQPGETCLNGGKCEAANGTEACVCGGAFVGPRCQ
Text: (§1) FIG. 1: Epitope mapping of anti-NOTCH1 monoclonal antibodies that bind to non-ligand binding domains.
(§2) To identify antibodies that recognize specific non-ligand binding regions of the NOTCH receptor extracellular domains, epitope mapping was preformed. In certain embodiments, mammalian expression plasmid vectors comprising a CMV promoter upstream of polynucleotides that encode fragments of the extracellular NOTCH1 domain as Fc fusion proteins were generated using standard recombinant DNA technology. These fusion proteins included a series of NOTCH1 fragments containing a nested series of deletions of EGF domains 1-5 or 10-15. Recombinant proteins were then expressed in cultured mammalian cells by transient transfection. Twenty-four to 48 hours following transfection, cells were harvested and cell lysate protein separated on non-reducing SDS-PAGE acrylamide gels for Western blotting using antibodies from mice immunized with NOTCH1 antigen. […] All antibody affinities were determined by BIAcore.

EGF1-2 = target: T2, EGF1-2; test: as above
T2 construct: member of the EGF 1-5 deletion series; also called NOTCH1 EGF 1-2 Fc fusion protein (deletion series)
T2 chain: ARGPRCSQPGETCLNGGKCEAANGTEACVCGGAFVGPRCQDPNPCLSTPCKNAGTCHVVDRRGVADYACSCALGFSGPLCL
Text: as §1, §2

EGF2-5 = target: T3, EGF2-5; test: as above
T3 construct: member of the EGF 1-5 deletion series; also called NOTCH1 EGF 2-5 Fc fusion protein (deletion series)
T3 chain: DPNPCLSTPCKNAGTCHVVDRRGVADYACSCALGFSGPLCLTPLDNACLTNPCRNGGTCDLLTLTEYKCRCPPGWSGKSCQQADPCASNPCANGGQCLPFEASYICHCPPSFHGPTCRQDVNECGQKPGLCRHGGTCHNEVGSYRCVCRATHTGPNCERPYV
Text: as §1, §2

[1] = target: T4, NOTCH1 EGF 1-3 Fc fusion protein (human, UniProt P46531 19-139, limits assumed); test: Western blot, SDS-PAGE of Fc fusion proteins
T4 construct: domain: EGF 1-3; Member of the nested deletion series; not shown: Fc
T4 sequence (looked up): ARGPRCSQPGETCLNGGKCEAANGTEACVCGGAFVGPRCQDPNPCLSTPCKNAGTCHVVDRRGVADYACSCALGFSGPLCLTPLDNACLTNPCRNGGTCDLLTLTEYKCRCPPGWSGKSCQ
Text: as §1, §2

[2] = target: T5, NOTCH1 EGF 5 Fc fusion protein (human, UniProt P46531 178-220, limits assumed); test: Western blot, SDS-PAGE of Fc fusion proteins
T5 construct: domain: EGF 5; Member of the nested deletion series; also called EGF 5 alone; not shown: Fc
T5 chain (looked up): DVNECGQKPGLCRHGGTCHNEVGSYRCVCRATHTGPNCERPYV
Text: as §1, §2

[3] = target: T6, NOTCH1 (construct used in the assay not stated) (human, UniProt P46531 19-220, limits assumed); test: BIAcore; format and NOTCH1 construct not stated
T6 sequence (looked up): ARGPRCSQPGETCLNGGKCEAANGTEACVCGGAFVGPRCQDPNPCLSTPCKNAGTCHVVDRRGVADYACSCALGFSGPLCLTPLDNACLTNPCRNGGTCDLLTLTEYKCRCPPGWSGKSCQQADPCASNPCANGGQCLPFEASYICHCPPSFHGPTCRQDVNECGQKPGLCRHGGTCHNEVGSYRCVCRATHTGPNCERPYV

B1: anti-NOTCH1 monoclonal antibody 13M57 (antibody, mouse IgG1, kappa, V domains shown)
VH: EVNLVESGGDLVQPGGSLRLSCAASGFTFSSYTMSWVRQTPEKRLEWVAYIDYGGDFTSYSDAIRGRFTISRDNAKNTLYLQMSSLKSEDTAIYYCSRRRYDAMDYWGQGTSVIVSS
VL: DIQMTQSTSSLSASLGDRVTVSCSASQAISNYLNWYQQKPDGTLKLLIYYTTNLHSGVPSRFSGSGSGTDYSLTISNLEPEDIATYYCQQYSKFPWTFGGGTKLEIKR
notes: Murine hybridoma antibody raised against NOTCH1 EGF repeats 1-5; Conjugated to Alexa Fluor 647 for some FACS work; also called 13M30
binding result (EGF1): no binding
binding result (EGF1-2): no binding
binding result (EGF2-5): binds
binding result [1]: no binding
binding result [2]: no binding
Kd [3]: 0.2 nM
